Our source for the release of inorganic phosphate (Pi) by GTP hydrolysis, A360 read every 5 min (EnzChek Phosphate Assay Kit; Rab7 700 nM, TBC1D15 300 nM, 22 °C); Rab or TBC1D15 alone as the blank values is article PMC4446614.

This assay deals with His-sumo-TBC1D15 (shark TBC1D15 from Chiloscyllium plagiosum) (Chiloscyllium plagiosum).

“MBP-Rab7a-WT (from UniProt P51149 1-207) (natural protein)” came in with a release of inorganic phosphate (Pi) by GTP hydrolysis, A360 read every 5 min (EnzChek Phosphate Assay Kit; Rab7 700 nM, TBC1D15 300 nM, 22 °C); Rab or TBC1D15 alone as the blank of 0.4 A360.
